The values that follow come from a protein production outcome set (Wang et al. 2014).

The nature of this series: label from the status in PepcDB records.

With “MSQETPYIFDARTADFDQSVIENSFHKPVLVDFWAEWCAPCKALMPMLQQIAESYQGELLLAKVNCDIEQDIVARFGIRSLPTVVLFKDGQPVDGFAGAQPESAVRAMLEPHVQMPPPPAADPLEQAEALFAEGRIGDAEALLKVLLGEDNSNAKALILYARCLAERGELGEAQTVLDAVKSDEHKAALAGAKAQITFLKQAADLPDAAELKARLAKDPQDDEALYQLAIQQLARQQYEAALEALLKLFMRNRSYNEGIAHKTLLQVFDLLGNDHPLVTAYRRKLFAALY”, the protein production entry was “failed”.
Then “MSQFSTVWVLSDVLSPLPELMGGASSLGQSINVFTFNDEQSIAAFKLGATAVFQLEGKPDDRIMEDYAQSIVETIKSHSDAGLVLLPNTRRGKLFAARLGHRLAAVVSNDAQSLSTQNDTLVAKHMVYGGLAFSDETLTTPYCVVTASTGAFDVASETQATGTAQKVAWIAPSQSIICQSIQ”, with “failed”.
To “MSQLEKAQAEYAGFIQEFQSAIISTISEQGIPNGSYAPFVIDDAKNIYIYVSGLAVHTKNIEANPLVNVLFVDDEAKTNQIFARRRLSFDCTATLIERESQKWNQVVDQFQERFGQIIEVLRGLADFRIFQLTPKEGRFVIGFGA” belongs “not failed”.
Then “MSQNLQPPIPLLVPETAPFSEEQRAWLNGFFAGLVSLDGQGVTALSPDQAAALLAGGPAPVAEDDDGGAPWHDQSLPIGERMQLAEGKPLRWKLMAAMAQQDCGQCGYDCRNYSGAIFDGQETRLNLCAPGGKDTARMVKTLTEQIGAAPTLDNAPSLAADAAPVVALPPRGTSRDNPATAKVLSRKRLNKPGSEKETWHVEFELEDCLSYEAGDSFGLFPTNDPALVDAVLHALGAPAEFPIAQSTLRQTLLDSVSLSPAPDMLFQLISYITGGDKRKKARSLASGEDPDGDAATLDVLAALEKFPGLRPDPEAFIEALDPLQPRLYSISSSPKTTPGRLSLTVDCVRYAIGKRQRLGVCSTGLAERVRPGETLRAYVQKAHHFALPSDPNQPIIMIGPGTGIAPFRAFLHERQAIQAPGKNWLFFGHQRSASDFFYEDELKAMKTAGHLTRLTLAWSRDSGEKIYVQDRIREVGRDLWSWLAEGASLYVCGDAKRMAKDVERALVDIVAQHGARSAAEATAFVSELKKQGRYQQDVY”, with “failed”; and “MSQPEPRAGENRALRAFAPDAGLFLLKPWIGGLALLADWGLIAAAFACAALWPHPVIYLLAALLIARSQLALAVLMHESAHGLLLRGQKANDRLGQWLAAGPLFLSLCTYRAGHLKHHLHPMEHDDPVVAVFGLGDYPLPRGKLALRLLADLCGVGYFISALRFARGDYRAIMPRVDKSPRQALAQVLSMLVSNGLLFGLLAWSGHPWLYLGLWLLPAITLLPLLGRVRAIMEHAGLPVAADQSRNARSIVRPSVQTFLFGPHAIHYHIEHHLYVRVPFYHLGGLHRQLATAQLLPEGNLYQGYGGVLRDVSDPDWRSSAR”, with “failed”.
As for “MSQQAARKLEKADIEAIFARSRFISAMNLEILDIDHAGSRFSVRMPLQDTYERGAPGTKQFHGGALAALIDVVGDFAIGMLVGGGVPTMNLRIDYLRPAVGDYVDGVAVVRKAGKSAAVVDIDILCPAGKLVAIGRGTYVPITG”, the protein production entry is on record as “failed”.
Then “MSQQFPDWQPQGLENNLLKLVPLAKADFDTLFEVASDPLIWEQHPTKDRYKKEVFQLFFDGALGGNTAFIIIDKATGRIIGSTRYYDYKPEQASIAIGYTFLNRDYWGGRYNRSAKKLLLDYAFHYVDTVYFHIGANNLRSQKAILNIGATKVGEVDFDYYGKKVLHYEYAITKADWLHTLKQQL”, with “failed”.
For the sequence “MSQRLILFSRYPEPGRSKTRLIPALGPEGAADLQRQLTEWTVFTAHCWQARSPQTEVLIATSGGTSEAWQQWLGAVEVQPQAEGDLGDRLHQAFQDSWQVGCDRTVIIGSDCPQIEPHHLDEAFAVLQQADVVIGPASDGGYWLIGLSQPQPQLFQNIDWGSDRVLVQTLEAAQVADLQVAQLESLSDLDRPEDLNLWQPQPQLSVIITTLNEAANLPQTLALIGDAPVETLVVDGGSQDATVAIAQAWGAKVIHSPAGRGRQFNQGAAAAHGNILLFLHGDTRLPPRFWEHVLQTLQPPQVVAGAFQLQIDSPDWRLRWIERGVRWRSHWLQQPYGDQALFLSRDRWRAIGGFSTGPLLEDYRFVRQLRRQGTIAIASAAVMTSARRWQRRGVLQTTLLNQLILLAHHCGVSDQQLARWYR”, the protein production result was “failed”.
With “MSQSLIAALQNPALFPHPVESFQVIETHISWVLLTGPYAYKFKKPMNFGFLDFTTLALREHFCQEELRLNKRLTDDMYLEVLPITGTAQAPQLGGDGDVIEYALKMKQFSQDGLLSTLQANGELTTAHIDELARQIADFHLDSPHVTAESELGSPDSVMAPVVQNFEQIRPLISEKSDLEQLDALQAWAESSFERLKPLLAQRKADGFIRECHGDIHLGNATVIDGKVVLFDCIEFNEPFRKTDVYADIGFLAMDLEDRGLKSLSRRLVSQYLEVTGDYVGLELLNFYKAYRAMVRAKVALFSQPADADGVQRAATLRQYRNYANLAESYSAIPSRFLTITHGVSAVGKSHVAMRLVESLGAIRLRSDIERKRLFAEGGEDLYGDEASSATYARLHELAGKTLRAGFSVVIDATYLKREQRDAAAKVAENTGVPFLILDCEAPQAVIASWLAQRQAQNNDPSDATLQVIEAQQASRELLSADEVLCSKKVATNIGSDLDSLVDNLRQRLPGLLEHHHHHH”, the protein production result is reported as “not failed”.
For “MSRASVTIGARRNGAIKAAAHARIRPVANSSCLAISRQMQHRYTMFEPKPQNPALAAALIFAATAFIAGTTLLAKALGTGALGPALPALQISHGRFLFALAVILSIVAATRPRLSRPHWGLHLGRTSFGWAGVTLMFAAVAYIPMADATAIAFLNPVFGMLLAIPLLGERVGPWRWGAAVIALVGALILLRPTPGSFQPAALLALAAAAVMGMELIFIKKLAGRERPIQILLVNNAMGLAIASLAVWPVWQAPLPAQWAALAGIGLLMACAQICFVNGMARADASFVAPFSYGTLVFAALYDLAVFQVWPDAISLGGAAIILTGALTLAWREGRVRRP”, the protein production result is listed as “failed”.
For “MSRELKLRIVSAIVMAAVILAATWYGGILFRIVAGLLAILIYYEWSTITRMSETNSTGNAWGWFAVAVIAGNTIFGESSLDLPLLSGFTLTAALFPVLRGKNWWLVGGIFYAGLSGISLAAIRGDELAGFASILFIFAVVWSTDILAYFVGRAIGGPKLAPSISPGKTWSGAVGGAVAAVIGGAAVSMAYHGRISLLLVGLALVLSVFSQIGDLFESFVKRRFQVKDSSHLIPGHGGFMDRVDGLVFACFTVFLIAFVHAAATGDVPGSGGGLLPGF”, the protein production result is reported as “failed”.
For “MSRGGFCQTYFAVDECQSPPVPYVVQKLHDNEQLLDSFQQKAQYIEQLSQNSQLPTLLAYFRDQDNYYFVQEFIAGASLAQVVQEEGAFHETQVWQLLTNLLPILKLMSDRQLIHGDIKPENIIRQLTPDSTNLVLVDFGHVQIVSRTDQITDVQGVGSPEYAAPEQITGQAVFASDLYSLGVTCIHLLTLVSPFDLFDIANDCWVWQQYLTTKISDRLTKILNKLIQKSVHQRFQSADEVMQVMGIEGKILHYPPPPSPWQCLHTLTGYSTNSLAISPDGNKLASGGDDKIIRLWELNTQKLLACFSGHSQAVTSVSFSPQGEILATASDDKTIKLWHLPTSSEVFTLNGHTNPVKSVSFSPNGQILASGSWDKQVKLWDVTTGKEIYALKAHQLQVSAVAFSPQGEILASASFDRTIRLWQITQNHPRYTLIKTLSGHTRAVLAIAFSPDGKILATGSDDNTIKLWDINTGQLIATLLGHSWSVVAVTFTADNKTLISASWDKTIKLWKVSTTEEIVTLASHLDSVCAVAVNPVTQVIASSSRDKTIKLWQLVIQQN”, the protein production entry is listed as “failed”.
To “MSRISVVIPAYNEASDLPQTIQGIRDLSLECEVIVVDDGSVDDTKKIAERLADITVALPVNQGKGQALMEGWKRAEGTHIVMLDADLGSTSSEMAHLLPPLLTNEADLVIGMLPTHSSKKGFGLVKKRAQQYIAKRTGAFLTAPLSGQRAFHRRWLPSLLEENVQGFGVETQMLLHFLLRGAVVKEIPTLMAHRYTGKTISGFIHRFQQWIDIERALRGSNTLEHHHHHH” belongs “not failed”.
